Results from patent US20160356794A1 (Merck Sharp & Dohme, published 2016).
No end group written: not given here.

How the values were obtained:
[1] = target: h-Tau 441 (human Tau isoform 2-441, Accession No. NP 005901.2) (human, UniProt P10636 2-758); experiment: SPR, BIAcore CM3 sensor chip, immobilized h-Tau 441
Description: The binding affinity (Kd) of the 10H8 and 19G10 mAbs was determined by BIAcore CM3 sensor chip (Biacore, Piscataway, N.J.) using immobilized h-Tau 441 as the capture protein.

PPTREPKKVAVVRTP [2] = target: T1, PPTREPKKVAVVRTP (human); experiment: RepliTope peptide microarray, immobilized 15-mer, fluorescent secondary antibody
T1 construct: Synthetic peptide covalently immobilized on glass through a hydrophilic linker (RepliTope microarray)
T1 peptide: PPTREPKKVAVVRTP
Excerpt: (§1) Epitope mapping of clones 10H8 and 19G10 was completed using JPT Peptide Technologies' RepliTope™ peptide microarrays. This technology consists in using purified synthetic peptides chemoselectively and covalently immobilized to the glass surface. An optimized hydrophilic linker moiety is inserted between the glass surface and the antigen derived peptide sequence to avoid false negatives caused by sterical hindrance. The peptides used spanned Tau mid region protein sequence of 166 amino acids between amino acid 104 and amino acid 269 (Tau 166). Peptides of 15 amino acids in length that extended downstream either 1 or 2 amino acids at a time were used in this experiment.
(§2) The assay was performed using an automated TECAN HS4X00 microarray processing station. Microarrays were washed, incubated with blocking buffer for 60 min at 30° C., and subsequently with clones […] and 19G10 diluted in blocking buffer for 120 min at 30° C. Microarrays were washed and incubated with secondary antibody diluted in blocking buffer for 45 min at 30° C. and then dried. The quantification was performed using high resolution fluorescence scanner. The resulting images were analyzed and quantified using spot-recognition software GenePix (Molecular Devices). For each spot, the mean signal intensity was extracted and expressed as arbitraty florescence units.

[3] = target: T2, … (human); experiment: as above
T2 construct: Synthetic peptide covalently immobilized on glass through a hydrophilic linker (RepliTope microarray)
Excerpt: as §1, §2

TREPKKVAVVRTPPK [4] = target: T3, TREPKKVAVVRTPPK (human, also: covalently immobilized on glass through a hydrophilic linker); experiment: as above
T3 construct: Synthetic peptide covalently immobilized on glass through a hydrophilic linker (RepliTope microarray)
T3 peptide: TREPKKVAVVRTPPK
Excerpt: as §1, §2

SRSRTPSLPTPPTRE = target: T4, SRSRTPSLPTPPTRE (human, also: covalently immobilized on glass through a hydrophilic linker); experiment: as above
T4 construct: Synthetic peptide covalently immobilized on glass through a hydrophilic linker (RepliTope microarray)
T4 peptide: SRSRTPSLPTPPTRE
Excerpt: as §1, §2

TREPKKVAVVRTPPK [5] = target: T5, TREPKKVAVVRTPPK (human, also: covalently immobilized on glass through a hydrophilic linker); experiment: as above
T5 construct: Synthetic peptide covalently immobilized on glass through a hydrophilic linker (RepliTope microarray)
T5 peptide: TREPKKVAVVRTPPK
Excerpt: as §1, §2

REPKKVAVVRTPPKS = target: T6, REPKKVAVVRTPPKS (human); experiment: as above
T6 construct: Synthetic peptide covalently immobilized on glass through a hydrophilic linker (RepliTope microarray)
T6 peptide: REPKKVAVVRTPPKS
Excerpt: as §1, §2

[6] = target: T7, … (human); experiment: as above; remark: listed apart in the source
T7 construct: Synthetic peptide covalently immobilized on glass through a hydrophilic linker (RepliTope microarray)
Excerpt: as §1, §2

SLPTPPTREPKKVAV [7] = target: T8, SLPTPPTREPKKVAV (human, also: covalently immobilized on glass through a hydrophilic linker); experiment: as above
T8 construct: Synthetic peptide covalently immobilized on glass through a hydrophilic linker (RepliTope microarray)
T8 peptide: SLPTPPTREPKKVAV
Excerpt: as §1, §2

PTPPTREPKKVAVVR [8] = target: T9, PTPPTREPKKVAVVR (human); experiment: as above
T9 construct: Synthetic peptide covalently immobilized on glass through a hydrophilic linker (RepliTope microarray)
T9 peptide: PTPPTREPKKVAVVR
Excerpt: as §1, §2

EPKKVAVVRTPPKSP [9] = target: T10, EPKKVAVVRTPPKSP (human); experiment: as above
T10 construct: Synthetic peptide covalently immobilized on glass through a hydrophilic linker (RepliTope microarray)
T10 peptide: EPKKVAVVRTPPKSP
Excerpt: as §1, §2

TPPTREPKKVAVVRT = target: T11, TPPTREPKKVAVVRT (human, also: covalently immobilized on glass through a hydrophilic linker); experiment: as above
T11 construct: Synthetic peptide covalently immobilized on glass through a hydrophilic linker (RepliTope microarray)
T11 peptide: TPPTREPKKVAVVRT
Excerpt: as §1, §2

LPTPPTREPKKVAVV = target: T12, LPTPPTREPKKVAVV (human); experiment: as above
T12 construct: Synthetic peptide covalently immobilized on glass through a hydrophilic linker (RepliTope microarray)
T12 peptide: LPTPPTREPKKVAVV
Excerpt: as §1, §2

KKVAVVRTPPKSPSS = target: T13, KKVAVVRTPPKSPSS (human); experiment: as above
T13 construct: Synthetic peptide covalently immobilized on glass through a hydrophilic linker (RepliTope microarray)
T13 peptide: KKVAVVRTPPKSPSS
Excerpt: as §1, §2

PTREPKKVAVVRTPP = target: T14, PTREPKKVAVVRTPP (human); experiment: as above
T14 construct: Synthetic peptide covalently immobilized on glass through a hydrophilic linker (RepliTope microarray)
T14 peptide: PTREPKKVAVVRTPP
Excerpt: as §1, §2

PGSRSRTPSLPTPPT = target: T15, PGSRSRTPSLPTPPT (human); experiment: as above
T15 construct: Synthetic peptide covalently immobilized on glass through a hydrophilic linker (RepliTope microarray)
T15 peptide: PGSRSRTPSLPTPPT
Excerpt: as §1, §2

EPKKVAVVRTPPKSP [10] = target: T16, EPKKVAVVRTPPKSP (human); experiment: as above
T16 construct: Synthetic peptide covalently immobilized on glass through a hydrophilic linker (RepliTope microarray)
T16 peptide: EPKKVAVVRTPPKSP
Excerpt: as §1, §2

PPTREPKKVAVVRTP [11] = target: T17, PPTREPKKVAVVRTP (human); experiment: as above
T17 construct: Synthetic peptide covalently immobilized on glass through a hydrophilic linker (RepliTope microarray)
T17 peptide: PPTREPKKVAVVRTP
Excerpt: as §1, §2

SLPTPPTREPKKVAV [12] = target: T18, SLPTPPTREPKKVAV (human, also: covalently immobilized on glass through a hydrophilic linker); experiment: as above
T18 construct: Synthetic peptide covalently immobilized on glass through a hydrophilic linker (RepliTope microarray)
T18 peptide: SLPTPPTREPKKVAV
Excerpt: as §1, §2

PTPPTREPKKVAVVR [13] = target: T19, PTPPTREPKKVAVVR (human); experiment: as above
T19 construct: Synthetic peptide covalently immobilized on glass through a hydrophilic linker (RepliTope microarray)
T19 peptide: PTPPTREPKKVAVVR
Excerpt: as §1, §2

h-Tau 441 (human Tau isoform 2-441, Accession No. NP 005901.2), sequence (P10636 other isoform, or with tags, fused parts or gaps limits assumed): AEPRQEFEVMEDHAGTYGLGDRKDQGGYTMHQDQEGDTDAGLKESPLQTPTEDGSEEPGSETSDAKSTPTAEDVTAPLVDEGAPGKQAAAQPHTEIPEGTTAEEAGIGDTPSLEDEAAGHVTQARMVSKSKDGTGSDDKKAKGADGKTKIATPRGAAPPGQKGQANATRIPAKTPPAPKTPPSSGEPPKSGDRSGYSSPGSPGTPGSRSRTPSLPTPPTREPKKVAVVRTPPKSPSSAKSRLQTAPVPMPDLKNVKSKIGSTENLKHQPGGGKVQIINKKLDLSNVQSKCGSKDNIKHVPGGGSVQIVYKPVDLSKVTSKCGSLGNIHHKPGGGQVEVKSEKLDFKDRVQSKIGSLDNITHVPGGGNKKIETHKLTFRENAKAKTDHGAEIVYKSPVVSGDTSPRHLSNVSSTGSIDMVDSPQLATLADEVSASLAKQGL

B1: monoclonal antibody 10H8 (antibody, mouse IgG1, V domains shown)
VH: EVQLQQSGAELVRPGASVKLSCTASGFNIKDEYMNWVKQRPERGLEWIGWIDPENGDAAYASKFQGKATMTADTSSNTAYLQLSSLTSEDTAVYFCTFFYSNYDGYFDVWGAGTTVTVSS
VL: DVLMTQTPLSLPVSLGDQASISCRSSQNIIHSNGSTYLEWYLQKPGQSPKLLIYKVSNRFSGVPDRFSGSGSGTDFTLKISRVEAEDLGIYYCFQGSHVPWTFGGGTKLEIK
notes: also called mAb 10H8; 10H8 mAb
- Kd [1]: 17 nM
- koff [1]: 0.000306 s⁻¹
- kon [1]: 18200 M⁻¹ s⁻¹
- Fluorescent Intensity (PPTREPKKVAVVRTP [2]): 61100 arbitrary fluorescence units
- Fluorescent Intensity [3]: 58000 arbitrary fluorescence units
- Fluorescent Intensity (TREPKKVAVVRTPPK [4]): 32400 arbitrary fluorescence units
- Fluorescent Intensity (SRSRTPSLPTPPTRE): 552 arbitrary fluorescence units
- Fluorescent Intensity (TREPKKVAVVRTPPK [5]): 58800 arbitrary fluorescence units
- Fluorescent Intensity (REPKKVAVVRTPPKS): 1400 arbitrary fluorescence units
- Fluorescent Intensity [6]: 56700 arbitrary fluorescence units
- Fluorescent Intensity (SLPTPPTREPKKVAV [7]): 64400 arbitrary fluorescence units
- Fluorescent Intensity (PTPPTREPKKVAVVR [8]): 53000 arbitrary fluorescence units
- Fluorescent Intensity (EPKKVAVVRTPPKSP [9]): 2100 arbitrary fluorescence units
- Fluorescent Intensity (TPPTREPKKVAVVRT): 60600 arbitrary fluorescence units
- Fluorescent Intensity (LPTPPTREPKKVAVV): 59500 arbitrary fluorescence units
- Fluorescent Intensity (KKVAVVRTPPKSPSS): 750 arbitrary fluorescence units
- Fluorescent Intensity (PTREPKKVAVVRTPP): 64300 arbitrary fluorescence units
- Fluorescent Intensity (PGSRSRTPSLPTPPT): 570 arbitrary fluorescence units
- Fluorescent Intensity (EPKKVAVVRTPPKSP [10]): 890 arbitrary fluorescence units
- Fluorescent Intensity (PPTREPKKVAVVRTP [11]): 60200 arbitrary fluorescence units
- Fluorescent Intensity (SLPTPPTREPKKVAV [12]): 63900 arbitrary fluorescence units
- Fluorescent Intensity (PTPPTREPKKVAVVR [13]): 64200 arbitrary fluorescence units
